Measurements reported in patent US20020165128A1, “Compositions and methods for proteolytically inactivating infectious agents using lactoferrin and related molecules” (priority 1998, published 2002).
Residue numbers refer to the chain shown, from its start. Like-named read-outs stand apart in the source and are kept apart here.

Legend:
[1] = target: H. influenzae IgA1 protease precursor (Haemophilus influenzae, UniProt P44969, S288V)
Method: The Rd strain was grown in brain heart-infusion broth supplemented with hemin (10 μg/ml) and nicotinamide adenine dinucleotide (2 μg/ml) to mid-log phase, and then harvested by centrifugation.
All samples were collected in sterile beakers; within 6 hours of collection they were centrifuged at 10,000×g for 20 min at 4 C to remove lipids and cells. The resulting whey was stored at −70 C and was prepared for use by thawing slowly, without further modifications. 2×10^9 H. influenzae cells were resuspended in 1 ml of the unmodified human milk whey and incubated at 37 C with gentle mixing. Samples were removed at intervals between 2 minutes and 1 hour. Whole cells and supernatants were examined by Western immunoblot using antisera directed against all domains of the preprotein.
Mid-log phase Rd3-13 bacteria were incubated in milk whey, and aliquots were removed at the times shown.
The antiserum used was anti-Rd3-13, which reacts with IgAp, IgAa, and IgAb.

[2] = cited from earlier work
[3] = target: T1, H. influenzae Hap adhesin (Haemophilus influenzae, UniProt P45387); type: cell-based; details: DB117 expressing wild-type Hap, 13 μM
T1 construct: expressed in transfected cells; host or cells: H. influenzae strain DB117 carrying pJS106
T1 sequence (P45387 26-1394): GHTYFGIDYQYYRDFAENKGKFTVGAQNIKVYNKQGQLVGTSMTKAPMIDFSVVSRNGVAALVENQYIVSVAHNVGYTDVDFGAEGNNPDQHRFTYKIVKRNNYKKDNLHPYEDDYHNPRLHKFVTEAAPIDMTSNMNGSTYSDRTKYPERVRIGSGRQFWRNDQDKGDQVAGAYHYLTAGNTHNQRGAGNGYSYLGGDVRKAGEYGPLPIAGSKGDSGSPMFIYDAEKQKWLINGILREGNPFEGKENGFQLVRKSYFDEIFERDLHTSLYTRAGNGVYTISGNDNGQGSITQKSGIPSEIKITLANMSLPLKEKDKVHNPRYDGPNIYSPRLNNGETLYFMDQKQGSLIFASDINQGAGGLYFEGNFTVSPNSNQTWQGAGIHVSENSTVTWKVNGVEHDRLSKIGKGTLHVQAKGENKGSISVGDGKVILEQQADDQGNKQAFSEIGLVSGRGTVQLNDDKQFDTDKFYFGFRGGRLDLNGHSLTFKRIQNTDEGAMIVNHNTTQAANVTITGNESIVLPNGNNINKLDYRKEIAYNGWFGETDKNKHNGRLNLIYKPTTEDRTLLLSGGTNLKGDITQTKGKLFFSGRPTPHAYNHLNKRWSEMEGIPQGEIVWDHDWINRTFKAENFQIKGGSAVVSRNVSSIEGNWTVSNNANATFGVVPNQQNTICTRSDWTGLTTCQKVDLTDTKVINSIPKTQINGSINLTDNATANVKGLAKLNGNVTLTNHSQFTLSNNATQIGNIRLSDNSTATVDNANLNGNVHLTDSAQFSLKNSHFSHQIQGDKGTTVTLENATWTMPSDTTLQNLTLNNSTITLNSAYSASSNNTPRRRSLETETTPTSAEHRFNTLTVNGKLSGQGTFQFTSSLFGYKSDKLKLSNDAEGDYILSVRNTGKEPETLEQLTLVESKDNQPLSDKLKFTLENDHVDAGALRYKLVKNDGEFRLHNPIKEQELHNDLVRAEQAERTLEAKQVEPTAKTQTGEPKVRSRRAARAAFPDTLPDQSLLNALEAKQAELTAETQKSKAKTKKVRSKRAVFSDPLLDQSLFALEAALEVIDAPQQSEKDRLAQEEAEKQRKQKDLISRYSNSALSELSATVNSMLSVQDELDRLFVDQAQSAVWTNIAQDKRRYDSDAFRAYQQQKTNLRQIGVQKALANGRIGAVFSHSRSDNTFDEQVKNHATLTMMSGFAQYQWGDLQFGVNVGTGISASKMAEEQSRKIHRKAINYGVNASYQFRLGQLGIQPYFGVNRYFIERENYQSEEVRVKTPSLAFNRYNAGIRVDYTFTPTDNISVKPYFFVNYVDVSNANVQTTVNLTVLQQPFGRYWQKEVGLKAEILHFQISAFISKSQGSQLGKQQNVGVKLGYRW

[4] = target: T2, H. influenzae Hap adhesin (Haemophilus influenzae, UniProt P45387, S243A); type: cell-based
T2 construct: expressed in transfected cells; host or cells: H. influenzae strain DB117 carrying pJS106
T2 sequence (P45387 26-1394 S243A): T1 sequence (P45387 26-1394) with S218A

[5] = system: H. influenzae Hap adhesin; type: cell-based, Haemophilus influenzae
[6] = target: T3, 20 amino acid peptide Ala1007-Phe1026 of Hap (Haemophilus influenzae, UniProt P45387); test: Lactoferrin cleavage of synthetic Hap peptide, mass spectrometry; type: biochemical
T3 construct: a 20 amino acid peptide corresponding to residues Ala1007-Phe1026 of Hap was synthesized; made in house; host or cells: chemical synthesis (f-moc), Protein Chemistry Laboratory at Tufts University
Source text: Next, a 20 amino acid peptide corresponding to residues Ala1007-Phe1026 of Hap was synthesized and subjected to cleavage by milk lactoferrin.

[7] = target: peptide fragments of IgA1 protease (Haemophilus influenzae, UniProt P44969); details: 60 amino acid peptide ending at Arg1397; similar with the 80, 40 and 20 amino acid peptides
Chain of peptide fragments of IgA1 protease (P44969 1338-1397): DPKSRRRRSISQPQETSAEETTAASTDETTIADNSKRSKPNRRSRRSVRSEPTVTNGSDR
Method: To further define the site of cleavage of the IgA1 protease precursor protein, N-Iga was resolved on an SDS-PAGE gel, then stained with Coomassie blue and excised. The excised band was subjected to Lys-C digestion, and mass spectrometry was performed. […] Subsequently, these peptides were treated with lactoferrin and then examined the reaction mixtures by mass spectrometry.
Digests involving lactoferrin and synthetic peptides were extracted twice with 50 μL acetonitrile/2% TFA and then dried and resuspended in matrix solution for analysis by MALDI mass spectrometry.

Chain of H. influenzae IgA1 protease precursor (P44969 26-1694 S288V): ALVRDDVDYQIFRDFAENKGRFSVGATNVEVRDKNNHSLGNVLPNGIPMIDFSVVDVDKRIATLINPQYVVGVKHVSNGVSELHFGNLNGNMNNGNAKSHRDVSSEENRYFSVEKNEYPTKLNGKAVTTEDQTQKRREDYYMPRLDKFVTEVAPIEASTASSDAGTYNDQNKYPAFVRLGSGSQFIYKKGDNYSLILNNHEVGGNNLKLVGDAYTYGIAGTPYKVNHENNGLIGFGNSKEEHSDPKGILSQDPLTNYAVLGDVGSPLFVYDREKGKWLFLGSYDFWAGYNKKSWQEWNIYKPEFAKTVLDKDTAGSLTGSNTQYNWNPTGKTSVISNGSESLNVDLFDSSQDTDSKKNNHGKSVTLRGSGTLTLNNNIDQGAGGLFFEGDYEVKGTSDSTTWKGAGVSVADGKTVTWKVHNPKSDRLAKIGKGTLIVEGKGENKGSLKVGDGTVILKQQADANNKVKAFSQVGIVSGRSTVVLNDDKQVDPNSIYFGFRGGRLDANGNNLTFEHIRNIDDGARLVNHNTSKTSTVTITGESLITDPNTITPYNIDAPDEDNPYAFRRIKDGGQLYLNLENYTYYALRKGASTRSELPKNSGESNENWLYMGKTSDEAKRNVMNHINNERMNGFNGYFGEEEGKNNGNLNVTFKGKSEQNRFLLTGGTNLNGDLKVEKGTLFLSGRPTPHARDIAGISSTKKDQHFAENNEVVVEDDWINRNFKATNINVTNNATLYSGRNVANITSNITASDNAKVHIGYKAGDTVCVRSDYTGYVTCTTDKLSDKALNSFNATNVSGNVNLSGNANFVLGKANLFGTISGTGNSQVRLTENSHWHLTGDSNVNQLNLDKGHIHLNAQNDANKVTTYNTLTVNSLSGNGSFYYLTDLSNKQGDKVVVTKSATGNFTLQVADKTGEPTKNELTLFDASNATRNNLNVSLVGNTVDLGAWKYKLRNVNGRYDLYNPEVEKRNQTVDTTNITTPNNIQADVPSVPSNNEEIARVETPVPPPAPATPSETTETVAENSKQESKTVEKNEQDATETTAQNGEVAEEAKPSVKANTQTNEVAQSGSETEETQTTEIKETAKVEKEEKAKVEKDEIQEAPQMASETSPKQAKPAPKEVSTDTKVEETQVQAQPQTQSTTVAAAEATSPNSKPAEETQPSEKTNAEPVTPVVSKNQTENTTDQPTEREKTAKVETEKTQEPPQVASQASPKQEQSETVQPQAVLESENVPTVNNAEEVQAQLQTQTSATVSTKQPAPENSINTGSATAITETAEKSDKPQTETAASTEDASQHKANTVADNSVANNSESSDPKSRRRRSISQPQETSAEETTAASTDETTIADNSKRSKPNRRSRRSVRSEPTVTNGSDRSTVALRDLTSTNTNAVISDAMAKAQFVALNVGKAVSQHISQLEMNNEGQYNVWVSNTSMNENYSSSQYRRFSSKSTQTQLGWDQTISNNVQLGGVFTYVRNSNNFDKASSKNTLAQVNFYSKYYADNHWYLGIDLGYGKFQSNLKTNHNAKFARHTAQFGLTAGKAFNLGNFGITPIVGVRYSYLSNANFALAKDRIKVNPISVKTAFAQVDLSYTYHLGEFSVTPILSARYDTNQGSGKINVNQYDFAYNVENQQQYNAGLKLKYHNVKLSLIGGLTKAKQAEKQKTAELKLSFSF

B1: DMV Lactoferrin: commercially available bovine milk lactoferrin powder, DMV International Nutritionals, Lot 10022340 (protein, UniProt P24627 20-708, looked up)
Lactotransferrin: APRKNVRWCTISQPEWFKCRRWQWRMKKLGAPSITCVRRAFALECIRAIAEKKADAVTLDGGMVFEAGRDPYKLRPVAAEIYGTKESPQTHYYAVAVVKKGSNFQLDQLQGRKSCHTGLGRSAGWIIPMGILRPYLSWTESLEPLQGAVAKFFSASCVPCIDRQAYPNLCQLCKGEGENQCACSSREPYFGYSGAFKCLQDGAGDVAFVKETTVFENLPEKADRDQYELLCLNNSRAPVDAFKECHLAQVPSHAVVARSVDGKEDLIWKLLSKAQEKFGKNKSRSFQLFGSPPGQRDLLFKDSALGFLRIPSKVDSALYLGSRYLTTLKNLRETAEEVKARYTRVVWCAVGPEEQKKCQQWSQQSGQNVTCATASTTDDCIVLVLKGEADALNLDGGYIYTAGKCGLVPVLAENRKSSKHSSLDCVLRPTEGYLAVAVVKKANEGLTWNSLKDKKSCHTAVDRTAGWNIPMGLIVNQTGSCAFDEFFSQSCAPGADPKSRLCALCAGDDQGLDKCVPNSKEKYYGYTGAFRCLAEDVGDVAFVKNDTVWENTNGESTADWAKNLNREDFRLLCLDGTRKPVTEAQSCHLAVAPNHAVVSRSDRAAHVKQVLLHQQALFGKNGKNCPDKFCLFKSETKNLLFNDNTECLAKLGGRPTYEEYLGTEYVTAIANLKKCSTSPLLEACAFLTR
removal of IgA protease precursor ([1]; Rd3-13, after 15 minutes): virtually no precursor was removed
removal of IgA protease precursor ([1]; Rd3-13, after two hours): only a trace of the precursor was removed
shelf life ([2]; original sealed packaging, stored below 20° C., max 75% relative humidity): at least three years
Iron binding: spectrophotometric method at 465 nm (on solids) ([2]; typical analysis): 76%
pH (2%, 20° C.) ([2]; typical analysis): 5.7

B2: human milk lactoferrin: lactoferrin purified from human milk whey using anion exchange and molecular sieve chromatography (protein, UniProt P02788 20-710, looked up)
Lactotransferrin: GRRRSVQWCAVSQPEATKCFQWQRNMRKVRGPPVSCIKRDSPIQCIQAIAENRADAVTLDGGFIYEAGLAPYKLRPVAAEVYGTERQPRTHYYAVAVVKKGGSFQLNELQGLKSCHTGLRRTAGWNVPIGTLRPFLNWTGPPEPIEAAVARFFSASCVPGADKGQFPNLCRLCAGTGENKCAFSSQEPYFSYSGAFKCLRDGAGDVAFIRESTVFEDLSDEAERDEYELLCPDNTRKPVDKFKDCHLARVPSHAVVARSVNGKEDAIWNLLRQAQEKFGKDKSPKFQLFGSPSGQKDLLFKDSAIGFSRVPPRIDSGLYLGSGYFTAIQNLRKSEEEVAARRARVVWCAVGEQELRKCNQWSGLSEGSVTCSSASTTEDCIALVLKGEADAMSLDGGYVYTAGKCGLVPVLAENYKSQQSSDPDPNCVDRPVEGYLAVAVVRRSDTSLTWNSVKGKKSCHTAVDRTAGWNIPMGLLFNQTGSCKFDEYFSQSCAPGSDPRSNLCALCIGDEQGENKCVPNSNERYYGYTGAFRCLAENAGDVAFVKDVTVLQNTDGNNNEAWAKDLKLADFALLCLDGKRKPVTEARSCHLAMAPNHAVVSRMDKVERLKQVLLHQQAKFGRNGSDCPDKFCLFQSETKNLLFNDNTECLARLHGKTTYEKYLGPQYVAGITNLKKCSTSPLLEACEFLRK
effect on Hap [3]: resulted in proteolysis, rather than extraction of Hap
effect on Hap preprotein ([4]; DB117 expressing HapS243A, 13 μM, whole cells): loss of the Hap preprotein and generation of a Hap C-terminal fragment
proteolysis of Hap ([5]; lowest concentration (87 nM), treatment of cells for 1 hour): proteolysis detectable but incomplete
cleavage site in Hap peptide [6]: cleavage between Arg1019 and Arg1020 and between Arg1020 and Ala1021
removal of IgA protease precursor ([1]; Rd3-13, 30 min. incubation, bacterial cell pellet): small amount of precursor protein remaining
removal of IgA protease precursor ([1]; Rd3-13, after 15 minutes): a large amount of precursor has been proteolytically removed
cleavage site in IgA1 protease peptides [7]: cleavage between Arg1382 and Arg1383 and between Arg1383 and Ser1384

B3: A. awamori recombinant lactoferrin: Aspergillus awamori recombinant human lactoferrin provided by Agennix Corporation (protein, UniProt P02788 20-710, looked up)
Lactotransferrin: B2 Lactotransferrin
modifications: expressed in Aspergillus awamori
proteolysis of Hap ([4]; DB117/HapS243A, 430 nM): partial proteolysis of Hap
Hap degradation products ([5]; DB117 derivatives, 13 μM): generated two products
